These results are taken from patent publication US20240034774A1.

Test in all cases: cell-based or functional assay
For experiment [1], the target named is HIV-1 envelope glycoprotein gp120 of virus 92US727 (HIV-1).
Experiment [2] addresses HIV-1 envelope glycoprotein gp120 of virus 7141 (HIV-1).
The target in experiment [3] is HIV-1 envelope glycoprotein gp120 of virus VS001 (HIV-1).
The target in experiment [4] is 152 patient-derived subtype B viruses obtained from pre-ART plasma.

B1: 2.3.7-1 (antibody, human IgG1, kappa, V domains shown)
VH: QVHLSQSGAAVTKPGASVRVSCEASGYNIRDYFIHWWRQAPGQGLQWVGWINPKTGQPNNPRQFQGRVSLTRHASWDFDTFSFYMDLKAVRSDDTAIYFCARQRSDYWDFDVWGSGTQVTVSS
VL: DIQMTQSPSSLSARVGDRATITCQANGYLNWYQQRRGKAPKLLIYDGSKLERGVPARFSGSRWGQEYTLTISSLQPEDVATYFCQVYEFFGPGTRLDLKR
For the molecule B1, the neutralization IC50 in experiment [1] is more than 50 µg/mL; in experiment [2] it was 5.08 µg/mL; in experiment [3] it was 0.47 µg/mL.

B2: Antibody 1.52.90-1 (antibody, V domains shown)
VH: QVQLLQSGAAVTKPGASVRVSCEASGYNIRDYFIHWWRQAPGQGLQWVGWINPKTGQPNNPRQFQGRVSLTRHASFDFDTFSFYMDLKALRSDDTAVYFCARQRSDYWDFDVWGSGTQVTVSS
VL: DIQMTQSPSSLSASVGDRATITCQANGYLNWYQQRRGKAPKLLIYDGSKLERGVPSRFSGSRWGQEYNLTISSLQPEDIATYFCQVYEFFGPGTRLDLKR
In experiment [4], B2 came in with a Breadth (% viruses neutralized with an IC95 ≤ 50 µg/mL) of 78%, a Geomean IC95 of 4.56 µg/mL and a Median IC95 of 4.42 µg/mL.

B3: 1.1.102-1 (antibody, human IgG1, kappa, V domains shown)
VH: QVQLLQSGAAVTKPGASVRVSCEASGYNIRDYFIHWWRQAPGQGLQWVGWINPKTGQPNNPRQFQGRVSLTRHASWDFDTFSFYMDLKALRSDDTAVYFCARQRSDYWDFDVWGSGTQVTVSS
VL: DIQMTQSPSSLSASVGDRATITCQANGYLNWYQQRRGKAPKLLIYDGSKLERGVPSRFSGSRWGQEYHLTISSLQPEDIATYFCQVYEFFGPGTRLDLKR
On to B3, for which the neutralization IC50 in experiment [1] was more than 50 µg/mL; in experiment [2], 22.7 µg/mL; in experiment [3], 3 µg/mL.

B4: 1.1.78-1 (antibody, human IgG1, kappa, V domains shown)
VH: QVQLLQSGAAVTKPGASVRVSCEASGYNIRDYFIHWWRQAPGQGLQWVGWINPKTGQPNNPRQFQGRVSLTRHASWDFDTFSFYMDLKALRSDDTAVYFCARQRSDYWDFDVWGSGTQVTVSS
VL: DIQMTQSPSSLSASVGDTATITCQANGYLNWYQQRRGKAPKLLIYDGSKLERGVPSRFSGRRWGQEYHLTINNLQPEDIATYFCQVYEFFGPGTRLDLKR
Regarding B4, the neutralization IC50 was more than 50 µg/mL in experiment [1], 29.5 µg/mL in experiment [2] and 3.3 µg/mL in experiment [3].

B5: 2.3.17-1 (antibody, human IgG1, kappa, V domains shown)
VH: QVHLSQSGAAVTKPGASVRVSCEASGYNIRDYFIHWWRQAPGQGLQWVGWINPKTGQPNNPRQFQGRVSLTRHASWDFDTFSFYMDLKAVRSDDTAIYFCARQRSDYWDFDVWGSGTQVTVSS
VL: DIQMTQSPSSLSARVGDTATITCQANGYLNWYQQRRGKAPKLLIYDGSKLERGVPARFSGRRWGQEYHLTINNLQPEDVATYFCQVYEFFGPGTRLDLKR
As to B5, the neutralization IC50 is more than 50 µg/mL in experiment [1], 31.3 µg/mL in experiment [2] and 4.54 µg/mL in experiment [3].

B6: 2.2.18-1 (antibody, human IgG1, kappa, V domains shown)
VH: QVHLSQSGAAVTKPGASVRVSCEASGYKIRDHFIHWWRQAPGQGLQWVGWINPKTGQPNNPRQFQGRVSLTRHASWDFDTFSFYMDLKAVRSDDTAIYFCARQRSDYWDFDVWGSGTQVTVSS
VL: DIQMTQSPSSLSARVGDRATITCQANGYLNWYQQRRGKAPKLLIYDGSKLERGVPARFSGSRWGQEYHLTISSLQPEDVATYFCQVYEFFGPGTRLDLKR
Consider B6, for which the neutralization IC50 in experiment [1] was more than 34 µg/mL; in experiment [2] it was 5.04 µg/mL; in experiment [3], 2.51 µg/mL.

B7: 2.2.17-1 (antibody, human IgG1, kappa, V domains shown)
VH: QVHLSQSGAAVTKPGASVRVSCEASGYKIRDHFIHWWRQAPGQGLQWVGWINPKTGQPNNPRQFQGRVSLTRHASWDFDTFSFYMDLKAVRSDDTAIYFCARQRSDYWDFDVWGSGTQVTVSS
VL: DIQMTQSPSSLSARVGDTATITCQANGYLNWYQQRRGKAPKLLIYDGSKLERGVPARFSGRRWGQEYHLTINNLQPEDVATYFCQVYEFFGPGTRLDLKR
Turning to B7, the neutralization IC50 in experiment [1] is more than 50 µg/mL; in experiment [2], 6.28 µg/mL; in experiment [3], 4.38 µg/mL.

B8: 2.3.18-1 (antibody, human IgG1, kappa, V domains shown)
VH: QVHLSQSGAAVTKPGASVRVSCEASGYNIRDYFIHWWRQAPGQGLQWVGWINPKTGQPNNPRQFQGRVSLTRHASWDFDTFSFYMDLKAVRSDDTAIYFCARQRSDYWDFDVWGSGTQVTVSS
VL: DIQMTQSPSSLSARVGDRATITCQANGYLNWYQQRRGKAPKLLIYDGSKLERGVPARFSGSRWGQEYHLTISSLQPEDVATYFCQVYEFFGPGTRLDLKR
Take B8: the results for the neutralization IC50 in experiment [1], in experiment [2] and in experiment [3] were more than 23 µg/mL, more than 23 µg/mL and 2.37 µg/mL, respectively.

B9: 3.1.18-1 (antibody, human IgG1, kappa, V domains shown)
VH: QVQLLQSGAAVTKPGASVRVSCEASGYNIRDYFIHWWRQAPGQGLQWVGWINPKTGQPNNPRQFQGRVSLTRHASWDFDTFSFYMDLKALRSDDTAVYFCARQRSDYWDFDVWGSGTQVTVSS
VL: DIQMTQSPSSLSARVGDRATITCQANGYLNWYQQRRGKAPKLLIYDGSKLERGVPARFSGSRWGQEYHLTISSLQPEDVATYFCQVYEFFGPGTRLDLKR
For the molecule B9, the neutralization IC50 in experiment [1] is more than 9.8 µg/mL; in experiment [2] it was more than 9.8 µg/mL; in experiment [3], 3.52 µg/mL.

B10: 3.1.17-1 (antibody, human IgG1, kappa, V domains shown)
VH: QVQLLQSGAAVTKPGASVRVSCEASGYNIRDYFIHWWRQAPGQGLQWVGWINPKTGQPNNPRQFQGRVSLTRHASWDFDTFSFYMDLKALRSDDTAVYFCARQRSDYWDFDVWGSGTQVTVSS
VL: DIQMTQSPSSLSARVGDTATITCQANGYLNWYQQRRGKAPKLLIYDGSKLERGVPARFSGRRWGQEYHLTINNLQPEDVATYFCQVYEFFGPGTRLDLKR
Regarding B10, the neutralization IC50 in experiment [1] was more than 50 µg/mL; in experiment [2], 25.5 µg/mL; in experiment [3], 2.21 µg/mL.
